From the DeepSol protein solubility set

test: soluble on expression in E. coli; label from the status in PepcDB or PDB records

Sequence	soluble on expression in E. coli
MGSDKIHHHHHHNSALEWLQRAASAAKEQNYSGIYVYHHGDEVEVLRVLHRNDGRREQEKTEVMDGTQRHFLRVNSDVYCHLADGKQVRLERNASRRFFPAFLPARAAGLAELYEVKLGGVERVAGRPCQVVMLEPRDGYRHAFQLWLDSRTGLPLKSRIVNSDGEVVSMFVFSEVQIGRPPDASLFRNELAGKQVQQVSLGQRIDLPWSVTPPPGFERVQEAVRTLPGRNTPVTHLVFSDGLSVLSMFIEPADPGVPSLQGLSAEGAIGVYARALDGHTITTVGEVPNLALIETGNSVRRK	not soluble
MGSDKIHHHHHHPEIIVPKPHQLKWHEAEMGAVFHYDLHVFDGIRYGQGNNRISPIEDYNIFNPTQLDTDQWIQAAKAAGCKFAVLTATHETGFGLWQSDVNPYCLKAVKWRDGKGDIVRDFVNSCRKYGIQPGIYVGIRWNSLLGIHNFKVAGDGEFAANRQAWYKRFCEKMVEELCTRYGDLYMIWFDGGADDPRGDGPDVEPIVNKYQPDCLFYHNIDRADFRWGGSETGTVGYPCWSTFPAPCSHHKRIESQKDQIALLKQGDPEGKYWVPAMADSPLRGANGRHEWFWEPDDENNIYPLTTLMDMYEKSVGRNATLIIGLTPDPDGLLPAGDEQRLKEWGEEINRRFGTPLAETQGRKQRLTLNLNEKQPVNYCIIQEDIAKGERIRQYKIEAKVNGKWQTVCSGESVGHKRIAHFEPVETTALRLTVTQSVAVPEIRHFSAYNVTLK	not soluble
MGSDKIHHHHHHPSEEVAKSGNPVFEGWYADPEGIIYGDTYWIYPTTSDLYEKQTFFDCFSSKDLVSWTKHTAILDTAEVKWAKIAMWAPSVINKDGKYYLFFGANDVHEGEIGGIGVAVSDRPEGPYKDLLGKPLINEIVNGAQPIDQFVFHDADNDEYYMYYGGWKHCNMVRLNKDFTGLIPFEDGTIYKEVTPKDYVEGPFMFKKNGKYYFMWSEGGWTGPDYKVAYAISDSPFGPFNRIGEVLRQNFDMANGAGHHSIMHVPNSEDYYIVYHRRPAGVKTRDHRETCIEKMTFNEEGLINPVEITTEGVEARTIQ	not soluble
MGSDKIHHHHHHQEKVSSMSEKSAPGSIQQPTRAQQLMGDIDPKLAELTDKVLFGDVWERKQLSKRDRSLVTVAALISLNRPDQLRSHMALALQNGVTREELVETITQLAFYTGWPNAVSAVPVARDVFRAADAAASHPDQGAQAQDDRTITVIHAGSQPSTHGSADHFTGSVQVDSRFQAQAPARSGGGIVTFEPGARTAWHTHPLGQTLIVTAGIGLVQQWGGPVQVIKPGDIVWIPPGVKHWHGATRTSGMTHIAIAEALDGKSVDWMELVMDAQYLGGQPR	not soluble
MGSDKIHHHHHHQPIPDMAKAQTAALNSITAADLSAYLHIVASDSMEGRATGEAGQKRTALYLADKFKEFGLSPAVPTAVDKSYFQKFSLVEKTWKEVWLKVGNKQKEFLKDFYAYGDVQLPEATAMKIVCAGYGIEARNYSDYTNLDVKDKGVIIFTGEPFKDSVSLVTKTKQSSTWANDWRAKADLAYKKGAKAVFIIVGNTDTDFETRLAALKDHLNAPSMAFTHKKKASAFFVPASLAAEMLKSTPDALASYKKNRTGTNTPYPFKSAKVIAKAGVTERTVETENVLAVIEGSRYPEEIVVLTAHYDHLGIENGQICYGADDDGSGTVALLEIAQAFSIAKSLGHGPARTILFMPVTGEERGLMGSEYYTDKPVFPLKNTVADLNIDMIGRVDAAHPNVIDENYVYIIGDNRLSSELHTLSENANTGWQGPKIVLDYTYNSFDDPNRFYYRSDHYNFAKNNIPVIFYFSGIHADYHKPTDTVDKIRFDKMAKITQLVFLTAWQLANMDHRLVVDRTE	not soluble
MGSDKIHHHHHHQQKSADVVENQFTTIKEVPITPVKDQANSGTCWSYSALGFLESEILRMGKPEVDLAEMHSVAQSYKDKGEKYVRMHGKLNFGQGGSFYDVLYVVKHYGVVPQSVMQGLNYGTKKNAHSELADGALAYLKAIVTNPNGKLTPAWKKAYDGIIDSYLGTCPETFTYEGKTYTPKSFAQYLGLNVDDYVSLTSYTHHPFYTQFALEIEDNWRGSLSYNMPINELMETMEYAINNGYSIAWGSDVSEVGFTRDGIGVLADVEGIEAKGSDQDRWVGLSRAEKQAEIIRTVNSADCPEINPTQEFRQKGYDEYSLTDDHGMVIYGIAKNQNGRKFFMVKNSWGETGKYKGIWYASYNFVAGRTMNIIVHKKAIPAAIAKKLGIRQ	not soluble
MGSDKIHHHHHHQSTGQVTLGVLTDMSSVYADSAGKGSVAAVQLAIEDVGGKALGQPVKLVSADYQMKTDVALSIAREWFDRDGVDAIFDVVNSGTALAINNLVKDKKKLAFITAAAADQIGGTECNGYGIGFLYNFTSIVKTVVQAQLAKGYKTWFLMLPDAAYGDLMNAAIRRELTAGGGQIVGSVRFPFETQDFSSYLLQAKASGAQLIVSTSGGAANINIMKQAREFGLPSKTQKVGGMIDILTDVKSAGLRVMQGQEYATSFYWNMDDRTRAFAKRFYAKMGKMPTNNQAGGYSAALQYLKAVNAIGSKDPQKVFAYLKTIKFDDAVTRHGTLRPGGRLVRDMYLVRAKKPEDQKGDWDYYDVVATIGPEQAFGPLSESRCAMDK	not soluble
MGSDKIHHHHHHQVSGDVVKIGILNDQSGLYADLAGAGSVQAARMAIEEFGGQVLGKKIELVWADHQNKADIGAGIARAWFDREGVDAIADFSNSSVGFAVQGLANERKKITLVAAGSSDFTGKACSPFSTQWVYNSYSNGYGLARLLASRGMDSVFLLTVDYTFGHAFANDVRKAVTENGGKVLGEVRFPLNSFDLSSYLLQAQASKAKLIVTAAAGSDMTSTVKQANEFGITPGQALAAPAVFITDVNSMGLQAAQGLQFVTAFYWDRTPDSRAWAEKFFARQKAMPSMTQAGVYSAVRHYLKAVEAAKTDDAVAVAAKMRELPVRDMNIENGRVREDGQVMHDMYLVEVKKPDESRRAWDYYKVLTTVPADQAFQALADSACPLVGKQ	not soluble
MGSDKIHHHHHHREEAPNAEADILSCRLPGVVMTTSPIITNNSINIFVGPGTDISSLAPEFTLTPGATIDPPSGTARDFHSPQQYTVTAADGFWKKKYTVSVIDTELATIYNFEDTLGGQKYYIFVEREGEKVVMEWASGNAGYAMTGVPKTADDYPTFQFANGKTGKCLSLVTRSTGFFGSIMGMPIAAGNLFIGSFDVGNAMSNPLKATKFGLPFRHIPTYLAGYYKYKAGDQFTEGGKPVSGKRDICDIYAIMYETSESVPTLDGTNAFTSPNLVSIARIDDAKETDEWTYFKLPFHMLSGKYIDKEKLTAGKYNVAIVFTSSLEGDHFNGAIGSTLLIDEVELIYRSED	not soluble
MGSDKIHHHHHHSCNEDDGAPYPSVRLEFLTAESGADGRLQTLVTDKGERLVVAEDRTESELLPNSSSRVVSNYEVLSSVGGRKEIRIYALANTVSPVPLPAGEFRNGLKFDPVDMLSIWMGRDYLNMTLSIRAQNARHTFHFIQESVERDAVTGKLKVHLMLYHDDGGDVEAYAKRAYVSVPLRQYTSDIGESVIIYFSFHTYDGEVQTYQFEYVPSHLTINY	not soluble
MGSDKIHHHHHHSCTSQKKKLAKMHTEDTIVKAQLIQHTKESLLSPYQHVNFQLDLTKNKTAFYGYNTGSKWELWVKTDSTITFKYDGEEMVFSSAKTTEAQDNPVVKYHSKTIVSNPSQPGLKKSITVMIRDEKYLDEIQGTYVPLSVRIEVEDHTNKTTVIYAGGGFYVVNPIIHDIWVLDSMSNVKVSAENFPLGAPRLEFHLDGGKIYGFSGCNEITATFYTIQNQIQLNSEISTLKSCVHVPLEPLFMGALANKRYYYSFEERRLKLKHRDGSILSFKKVD	not soluble
MGSDKIHHHHHHSDEEDGGSGGNLIYGGVSVSQEVLAHKPMLEKYAREYGIEEYLNVLLAIIQVESGGTLEDVMQSSESLGLPPNSLSTEESIKQGCKYFSELLAAAETKGCDLNSVIQSYNYGGGFLDYVAGHGKKYTFELAESFARDKSGGKKVTYTNPVAVEKNGGWRYSYGNMFYVLLVSQYLTVAQFDDETVQAIMEEALKYEGWTYVYGGDSPSTSFDCSGLVQWCYGKAGIALPRTAQEQYNVTQHIPLSEAKAGDLVFFHSTYNAGTYITHVGLYVGNNRMYHAGNPIGYADLTGSYWQQHLAGAGRIKQ	not soluble
MGSDKIHHHHHHSDFLNLTPYSEITAENFYQNEEDFRQAVNGAYEPLRNMYNTEEWNLGEAKSDNTTYIIHIAKSSLDGEDPDQFLETSTNGNVGTKYNNCYVIIGRCNRIISEIDQADFDAEAKSNLKGQALFLRAFCYFNLVQYFGGVPLHTTPSTVYEEAFKPRASVDEVYEQIMKDAQEASDLLPVKSRQEVGRVSKGSAQTLLGNVYMVLKRWAEAEQTLKEVVSSGEYELLADYGSIYSISNKNHKESIFEIQYMQDASLGQQSDFIYRFLPYMTNPSAITGTTPNPCPSNVDHGGFNTPTIDLINAYEKGDKRLDASIGMVEGKLTDSYALDATGVKSIVDYEPAPGITAYPFIKKYFHEHIKPYYTDDNWPVYRYAEVLLFLAEAINEQNRPDEAIHYLNDTFGQASIRGRAGLAPVKSQNVDALREAIYQERRIELAFENKRWTDLLRTGRAVEVMTRHGQKIKANPESYYWPDGVQPVANAYLFNPDKCLLPIPLREIDLNSELKQNPGY	not soluble
MGSDKIHHHHHHSVQSIINNPAVDPHDYEPTTKVGKSVASADLVVASGIGYDGWMDKVVKSADKSKNYLRVADDLMNKKEGDNEHIWYDPRTMSKLANTLADKFAKKDPADKATFKANAKKYIASLDNLNTLINKLKSKVNGQLVDVSEPVFGYALDYLGYKVNDDHFSKSTEDGTDYSAKDIHGIETDIKEKKIAFFVNNIQASSKTVNQLVKLAEQNNVPVLKVTETLPKGKNYRTWMTSQYQQLEKIQDQATNSAK	not soluble
MGSDKIHHHHHHTEDKDWSGGLKNSDLVFQTYLPTEGAKGTELSIRGNNFGEDISQVQVWVNEKEAEVISVTSTRIMARVAEASGSGVVKVRVGEVVYSYPDLFSYGYIRNVYTVAGNGQGTTVDGAYLQASVQWPIVMVYDKWDDAILFLQDEGEHRIRRMKDGKIETLCSTKSLVNNARSICFSLDGDTLFIGNDNANNYVANPVAVGMVTRKGGFKDLKSYIPSEKLAQPHINGIAVNPVDGSLFTYHWGRHVFRYNKATETCEYVITRDQFNELVVGLFPDADGNMQNIGGDGGYGGLAFSPDGKTLYWNGRDPYQGILKADYDLVTKKCTNLTRFAGNGVWGIIDGQGVSSRMDQPNQIAVDAEGNLLVTTVYGRTVRKITPEGYVSTYAGIGYQTGYVDGLAAEAKFNKPYGIAIDAQGNVYVGDCENWRIRVIKEE	not soluble
MGSDKIHHHHHHVALAIPQIHAHEHSDEQLMQRYAQGDSQAFEQLYLKHKGALYRYFVRQLGDKQLAEDLYQETWGRVIRAAVNYQVSAKFSTWLYRIAHNLLIDHVRAVKPVDFIASDTDVTGLDTFEGCDQDKPDIHWQEAQKSLLLKTCISLLPQVQKEAFILNIEMGFTAAMISDIAGVTLEATKSRIRYAYQSLKECVNAKWQEAGHE	not soluble
MGSDKIHHHHHHVDKFLYIAMSGAKQNLNSLSIRANNLANANTDGFKADLEQSRSMQAFGEGLPTRVFAMTENPQASFRHGPINSTARDLDVAVKGDGWIAVEDADGNEAYTRAGSLKFDETGLLTNSQGRPVMGDAGPIVLPLPIDKVEIAQDGTITVRPQGATAEVVEEVARIKLVNPGNQNLMRGDDGLFRMMNGTTAPQDETVALESRAVEGSNVNPVEEMVALIDIQRQFELQVKMMKTAEENDKASAQLVRIG	not soluble
